Read-outs that look alike come from different tables or passages of the source. Square brackets hold non-standard residues; d marks the D form. Peptide text beside a SMILES is read from it. * marks the point of attachment. PEG12 = NCCOCCOCCOCCOCCOCCOCCOCCOCCOCCOCCOCCOCCC(=O)O; PEG4 = NCCOCCOCCOCCOCCC(=O)O; HYNIC = NNc1ccc(C(=O)*)cn1; X1 = O=C(/C=C/c1ccccc1)*
Columns and labels:
[1] = test system: isolated human neutrophils (formyl peptide and tuftsin receptors); assay: Neutrophil binding, saturation assay; conditions: for Kd: TNF-α treated human neutrophils, 25° C., 90 min, saturation assay
Method: Human tumor necrosis factor-α (TNF-α) was procured from Perpotech, and fMLF was purchased from Sigma. Aliquots of both samples were taken (TNF-α, 10 U/mL, and fMLF, 10 mM) and stored at −20° C. For every assay the solutions were thawed to ambient temperature and freshly diluted with […] (HA) buffer before use. Multiscreen high-throughput screening (HTS) with glass fiber filter (FC) 96-well plates, type C, with […] glass filters were purchased from Millipore. Filtration from 96-well plates was performed under vacuum on a Brandel filtration device. The membranes from each well were collected by punching with the Millipore Multiscreen punching instrument. The radioactivity from ^99mTc-bound ligand was measured with either Minaxi (Packard), Autogamma 5000 series (Packard), or Wallac 1420 Wizard (Perkin-Elmer) γ-counters. Radioactivity was measured for 1 min per sample and was not corrected for decay.
Human neutrophils were prepared from normal heparinized (10 U/mL) venous blood by a 1-step Ficoll-Hypaque separation procedure (15, 16), yielding approximately 98% neutrophils; greater than 95% viable as determined with trypan blue containing less than 50 pg/mL of endotoxin. After separation, neutrophils were washed with Hank's balanced salt solution with heparin (10 U/mL) 3 times. After the third wash, neutrophils were resuspended in HA buffer, which was Hank's balanced salt solution supplemented with 0.1% human albumin (Bayer Healthcare). Neutrophil experiments were completed in HA buffer.
Freshly isolated human neutrophils (4×10^6 cells/mL) were treated with TNF-α(10 U/mL, Peprotech) twenty minutes prior to binding studies and transferred to a 96 well plate (Multiscreen® HTS FC by Millipore, Billerica, Mass. 1.2 μm glass filter type C, 50.0 μL, 2.0×10^5 cells/well). […] The bounded radioactivity remaining on the membranes was measured in a gamma counter. Specific binding was calculated as the difference between total binding and nonspecific binding at the highest concentration. […]

[2] = Partition coefficient (octanol/water); assay type: physicochemical; conditions: average of three measurements
Method: Freshly HPLC purified cFLFLF-PEGn-KTKPPR-^99mTc 8 or 9 (˜350 kBq) in 500 μL of water was mixed with 500 μLof octanol in an Eppendorf microcentrifuge tube. The tube was sonicated for […] and then centrifuged at 4,000 rpm for […] (Fisher Scientific Marathon Micro-A). Aliquots (100 μL) of octanol and aqueous layers were carefully separated and radioactivity of samples were counted. Log P is derived as the log of the ratio of radioactivity in octonol to radioactivity in water. The measurement was repeated in triplicate and data presented is the average of three measurements.

[3] = mouse, in vivo; cited from earlier work
[4] = mouse, in vivo; cited from earlier work; remark: listed apart in the source
Biodistribution = assay type: in vivo; conditions: normal mice, 18 hours post injection
Method: Body distribution of radioactivity was determined in control (n=3) mice 18 h after injection of tracer. After a single blood sample had been taken from the tail vein, mice were euthanized by deep halothane anesthesia. The organs and tissues (ear, heart, lungs, muscle, bone, liver, kidney, spleen, small intestine, and stomach) were collected, rinsed with PBS, wiped with filter paper and weighed in a pre-weighed vial. The radioactivity of each sample was measured in a γ-well counter and decay-corrected back to the time of tracer injection. Biodistribution values are expressed as a percentage of the injected dose (% ID) and normalized by body and organ/tissue mass.

Serum stability = assay type: in vitro ADME; conditions: fetal bovine serum
Method: Fifty microcuries of the cFLFLF-PEG12-TKPPR-^99mTc was added in to 100 μL of fetal bovine serum (Invitrogen, Grand Island, N.Y.). After incubation at 37° C. for 1, 3, and 6 hrs, aliquots of the mixture was filtered through a […] micro spin filter. The filtrates were analyzed by reverse-phase HPLC with a Bioscan Flow Count Radio-HPLC detector. All of newly formed γ-peaks besides the original cFLFLF-PEG12-TKPPR-^99mTc peak would be considered as degraded products.

[5] = test system: PMA-induced ear inflammation (neutrophil accumulation); assay: SPECT/CT imaging in mouse ear inflammation model (PMA); assay type: in vivo; conditions: 27 hours after PMA challenge, 3 hours post injection
Method: A female FVB mouse, 5 month old, with left ear inflammatory lesion was used to preliminarily assess the ability of the cFLFLF-PEG12-TKPPR-^99mTc to detect inflammation as a result of neutrophils migration and accumulation. The animal model is similar to that described by Gross et al. (19). Topical application of PMA (2.5 μg in 20 μl DMSO) onto the left earlobe induces acute dermatitis, manifested by local swelling, erythema and infiltration of neutrophils (20, 21). The right ear served as control and received only DMSO (vehicle). The SPECT/CT imaging was correlated with myeloperoxidase (MPO) activity determined by non-invasive bioluminal-bioluminescence imaging (19).
Twenty-four hours after PMA challenge, 3.7 MBq […] of cFLFLF-PEG12-TKPPR-^99mTc in 200 μl of saline was administered via tail vein. […] All SPECT images were corrected for radioactivity decay but not for gamma ray attenuation.
Co-registration of SPECT and CT images was performed using ASIPRO software (Siemens Medical Solutions USA, Inc., Knoxyille, Tenn.) and a transformation matrix previously obtained with a dual modality phantom. To characterize the accumulation of the tracer in the ears, volume-of-interest (VOI) analysis was performed to identify the number of detected counts originating in the ears. […] This activity was expressed as percentage of the injected dose per mouse body mass (% ID/g).

Blood clearance = assay type: in vivo; conditions: mouse, whole blood, intravenous, control mice (n=3), tail vein injection, mono-exponential clearance; read-out: elimination half-life for blood clearance (T1/2)
Method: Blood kinetics of cFLFLF-PEG12-TKPPR-^99mTc was studied in 3 control (non-inflamed) mice. Approximately 50 μL of blood from the contralateral tail vein were collected in capillary tubes at 15, 30, 45, 60, 120, and 180, 360 min after tracer injection (0.37-0.74 MBq). The capillary tubes were placed in a vial that was weighed beforehand and afterward. Activity in each blood sample was measured in a radioisotope calibrated well counter (CRC-15W, Capintec, Inc, NJ), decay corrected back to the time of tracer injection, normalized for injected dose and animal body weight, and expressed as % ID/g of blood.

| Compound | Kd [1] [nM] | fold less potent than compound 9 ([1]; binding to human neutrophils, ratio of Kd) | logP [2] | blood retaining [3] [% ID] | liver uptake [3] [% ID] | circulation time (T1/2) [4] [h] | blood retaining (Biodistribution) [% ID] | liver uptake (Biodistribution) [% ID] | stable in serum (Serum stability; 37° C.) | fragments of 99mTc labeled peptide by HPLC analysis of serum samples (Serum stability; 37° C., 1, 3, and 6 hours) | accumulation of the tracer in the infected ear (left) vs. control ear [5] | half-life (Blood clearance) [h] |
| --- | --- | --- | --- | --- | --- | --- | --- | --- | --- | --- | --- | --- |
| CC(C)C[C@@H](NC(=O)[C@H](Cc1ccccc1)NC(=O)[C@@H](CC(C)C)NC(=O)[C@H](Cc1ccccc1)NC(=O)/C=C/c1ccccc1)C(=O)N[C@@H](Cc1ccccc1)C(=O)NCCOCCOCCOCCOCCC(=O)N[C@@H](CCCCNC(=O)c1ccc(NN)nc1)C(=O)N[C@H](C(=O)N[C@@H](CCCCN)C(=O)N1CCC[C@H]1C(=O)N1CCC[C@H]1C(=O)N[C@@H](CCCNC(=N)N)C(=O)O)[C@@H](C)O [ligand 8, cFLFLF-PEG4-TKPPR-^99mTc, metal not drawn] (X1-F[dL]F[dL]F[PEG4]K(HYNIC)TKPPR-OH) | 47.8 | roughly 3 fold | -0.77 |  |  |  |  |  |  |  |  |  |
| cFLFLFK-PEG-^64Cu |  |  |  | 0.2 | 1.5 | 0.917 |  |  |  |  |  |  |
| CC(C)C[C@@H](NC(=O)[C@H](Cc1ccccc1)NC(=O)[C@@H](CC(C)C)NC(=O)[C@H](Cc1ccccc1)NC(=O)/C=C/c1ccccc1)C(=O)N[C@@H](Cc1ccccc1)C(=O)NCCOCCOCCOCCOCCOCCOCCOCCOCCOCCOCCOCCOCCC(=O)N[C@@H](CCCCNC(=O)c1ccc(NN)nc1)C(=O)N[C@H](C(=O)N[C@@H](CCCCN)C(=O)N1CCC[C@H]1C(=O)N1CCC[C@H]1C(=O)N[C@@H](CCCNC(=N)N)C(=O)O)[C@@H](C)O [ligand 9, cFLFLF-PEG12-TKPPR-^99mTc, metal not drawn] (X1-F[dL]F[dL]F[PEG12]K(HYNIC)TKPPR-OH) | 15.1 |  | -0.89 |  |  |  | 1.2 | 5.3 | at least 6 hours | no appreciable fragments | about 3.15 folds | ~1.4 |

Source: US20130144035A1, “COMPOSITIONS AND METHODS FOR LEUKOCYTE-TARGETING MULTI-VALENT IMAGING PROBES” (priority 2010, published 2013)
